Experimental data from paper PMC8699464, “Cyclic Tetra-Adenylate (cA4) Recognition by Csa3; Implications for an Integrated Class 1 CRISPR-Cas Immune Response in Saccharolobus solfataricus” (Biomolecules, 2021).

Assays:
Csa3a (SsCsa3a) [1] = target: T1, Csa3a (SsCsa3a) (Saccharolobus solfataricus P2, UniProt Q97Y88 1-237); experiment: fluorescence polarization; details: 37 C 30 min, 18 nM DNA (5.2 ng/uL), +/-10 uM cA4, 2% agarose, FP: 20 mM SPG, 50 mM NaCl, pH 6.5, 50 C (also 21 C), 30 nM DNA, ITC: 10 mM Tris
T1 sequence: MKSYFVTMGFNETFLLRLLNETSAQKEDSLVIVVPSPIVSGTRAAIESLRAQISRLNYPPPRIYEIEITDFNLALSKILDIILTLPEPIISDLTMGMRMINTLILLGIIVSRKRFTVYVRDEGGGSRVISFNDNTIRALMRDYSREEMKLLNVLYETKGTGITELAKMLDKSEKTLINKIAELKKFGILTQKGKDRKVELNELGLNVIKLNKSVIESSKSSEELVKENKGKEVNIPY

Csa3a (SsCsa3a, Sso1445) = target: T2, Csa3a (SsCsa3a, Sso1445) (Saccharolobus solfataricus, UniProt Q97Y88); experiment: ITC at […] °C; co-crystal structure at […] Å; type: binding
T2 construct: gene csa3; 6×His-tagged Sso1445 (pEXP14-6×His-Sso1445), homodimer; crystal model lacks residues 213–237 of both chains and 160–162, 174–176, 192–195 of chain A
T2 sequence (Q97Y88 1-237): T1 sequence

Csa3a (SsCsa3a) [2] = target: T1, Csa3a (SsCsa3a); experiment: ITC; 25 C; 250-500 uM cA4; n about 0.6 per dimer; endothermic; EMSA: TAE, 37 C 30 min, 18 nM DNA (5.2 ng/uL), +/-10 uM cA4, 2% agarose; FP: 20 mM SPG, 50 mM NaCl, pH 6.5, 50 C (also 21 C), 30 nM DNA; ITC: 10 mM Tris, 50 mM; details: protein: recombinant; tags: 6xHis (pEXP14-6xHis-Sso1445); chain copies: 2; cyclic, single copy per Csa3a dimer
[3] = target: the molecule itself; experiment: crystal structure; Csa3a co-crystallised with cA4 by hanging drop vapor diffusion at 22 °C; 2.45 Å; space group P212121; one Csa3a dimer in the asymmetric unit

## 20 bp CAPPa, I-A (2) cas4a promoter
Csa3a (SsCsa3a) [1]; 10 uM cA4, 50 C, EMSA: TAE
  Kd: 2.7 µM
Csa3a (SsCsa3a) [1]; no cA4, 50 C, non-cooperative, EMSA: TAE
  Kd: 3.2 µM

## 75 bp I-A (2) cas4a CAPPa fragment
Csa3a (SsCsa3a) [1]; 10 uM cA4, 50 C, cooperative, EMSA: TAE
  Kd: 0.21 µM
Csa3a (SsCsa3a) [1]; no cA4, 50 C, cooperative, Hill about 2, EMSA: TAE
  Kd: 0.27 µM

## Nc1ncnc2c1ncn2[C@@H]1O[C@@H]2COP(=O)(O)O[C@H]3[C@@H](O)[C@H](n4cnc5c(N)ncnc54)O[C@@H]3COP(=O)(O)O[C@H]3[C@@H](O)[C@H](n4cnc5c(N)ncnc54)O[C@@H]3COP(=O)(O)O[C@H]3[C@@H](O)[C@H](n4cnc5c(N)ncnc54)O[C@@H]3COP(=O)(O)O[C@H]2[C@H]1O [cA4, cyclic tetra-adenylate]
Csa3a (SsCsa3a, Sso1445)
  Kd: 1 to 1.5 µM

## AAAA (ssRNA, cyclic, 3'-5' linked?) [cA4 (cyclic tetra-adenylate)]
Csa3a (SsCsa3a) [2]
  Kd: 1.23 µM

B1: Saccharolobus solfataricus Csa3a (Sso1445) (natural protein, UniProt Q97Y88 1-237, looked up)
chain: T1 sequence
notes: Csa3a (Sso1445) of Saccharolobus (Sulfolobus) solfataricus P2, with an N-terminal CARF domain and a C-terminal winged helix-turn-helix domain; also called SsCsa3a; SsCsa3; source: E. coli BL21 (DE3)-pRIL, purified (heat step at 60 °C, Ni-NTA, Superdex 75)
[3]
  binding result: binds
